Assay results reported in patent publication US20250282820A1, “PEPTIDE COMPLEX HAVING TRKB BINDING ACTIVITY” (PEPTIDREAM INC, priority 2022, published 2025).
Each block holds one molecule with its values, some of them ahead of it. *1 amine or outer side, *2 acyl side, *3 side chain or, on linkers, in order; H or OH if unused. Where a SMILES comes first, the peptide text is derived from it. Bridges are numbered along the chain shown (N, C = ends). Roman numbers before positions name the chains, in order. Where no end group is shown, it is not given here. [ ]: non-standard residue; d: D form. CO(CH2CH2O)9CH2CH2CO = O=C(CCOCCOCCOCCOCCOCCOCCOCCOCCOCCC(=O)[*:2])[*:1]; 3Pal = N[C@@H](Cc1cccnc1)C(=O)O

How the values were obtained:
TrkB = TrkB (Homo sapiens, UniProt Q16620); assay: PathHunter eXpress TrkB Functional Assay (phosphorylation of TrkB); type: cell-based; conditions: maximum signal induced by BDNF = 100%; stimulation for 3 hours
Chain of TrkB (Q16620 32-822): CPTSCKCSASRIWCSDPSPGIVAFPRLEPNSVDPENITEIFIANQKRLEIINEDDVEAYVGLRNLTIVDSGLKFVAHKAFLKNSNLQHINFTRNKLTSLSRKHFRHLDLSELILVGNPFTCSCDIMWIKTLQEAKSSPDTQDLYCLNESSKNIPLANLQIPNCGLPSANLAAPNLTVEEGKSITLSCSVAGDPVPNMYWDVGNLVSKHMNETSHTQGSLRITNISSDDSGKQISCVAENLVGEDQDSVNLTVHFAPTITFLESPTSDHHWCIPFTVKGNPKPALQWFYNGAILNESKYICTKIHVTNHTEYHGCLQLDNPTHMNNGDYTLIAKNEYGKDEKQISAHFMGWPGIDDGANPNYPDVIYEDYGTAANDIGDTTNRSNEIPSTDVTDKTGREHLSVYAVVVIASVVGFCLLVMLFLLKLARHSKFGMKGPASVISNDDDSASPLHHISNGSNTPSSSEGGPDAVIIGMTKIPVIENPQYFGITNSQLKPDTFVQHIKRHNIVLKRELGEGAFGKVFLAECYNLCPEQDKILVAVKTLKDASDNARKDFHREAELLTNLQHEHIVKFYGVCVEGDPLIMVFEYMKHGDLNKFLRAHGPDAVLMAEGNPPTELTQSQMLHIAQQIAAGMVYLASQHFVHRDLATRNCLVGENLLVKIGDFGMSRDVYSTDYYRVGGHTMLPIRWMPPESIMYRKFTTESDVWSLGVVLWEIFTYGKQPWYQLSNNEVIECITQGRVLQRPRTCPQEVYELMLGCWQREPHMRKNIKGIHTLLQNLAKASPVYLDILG
Description: To evaluate the TrkB activation potency of the TrkB agonist peptide of the present invention, the phosphorylation of TrkB was examined. The PathHunter (registered trademark) eXpress TrkB Functional Assay kit (DiscoverX; cells, 96-well plate, medium, and detection reagents included) was used and the evaluation was performed according to the attached protocols. The frozen cells were thawed and suspended in the medium, then seeded into a 96-well plate at 10,000 cells per well and incubated for 48 hours. Thereafter, Recombinant Human BDNF Protein (R&D Systems) or a peptide was added, and after stimulation for 3 hours, a detection reagent was added. The reaction was performed while protected from the light at room temperature for 60 minutes, and luminescent signals were measured using a SpectraMax Paradigm Multi-Mode Microplate Reader (Molecular Devices). The obtained signals were analyzed with GraphPad Prism, and the activity (%) was calculated with the maximum value of the signals induced by BDNF as 100% and a signal with no stimulation as 0%.
The BDNF was evaluated at 8 points (0.006 nM to 100 nM) from 100 nM using 4-fold dilutions. The peptide was evaluated in the measurement ranges A to C shown below. • Measurement range A=6 points from 100 nM using 5-fold dilutions (0.032 nM to 100 nM) • Measurement range B=8 points from 100 nM using 4-fold dilutions (0.006104 nM to 100 nM) • Measurement range C=4 points from 10 nM using 10-fold dilutions (0.01 nM to 10 nM)

[1] = target: TrkB of the cells of the PathHunter eXpress TrkB Functional Assay kit (DiscoverX) (UniProt Q16620 32-822, limits assumed); assay: cell-based or functional assay
Chain of TrkB of the cells of the PathHunter eXpress TrkB Functional Assay kit (DiscoverX) (Q16620 32-822 limits assumed): as the sequence (Q16620 32-822) above

Molecule: CC(C)[C@@H]1NC(=O)[C@H](Cc2cccnc2)NC(=O)[C@H](CCC(=O)O)NC(=O)[C@H](CO)NC(=O)[C@H](Cc2ccc(O)cc2)NC(=O)[C@H]([C@@H](C)O)NC(=O)[C@@H]2CCCN2C(=O)[C@H](Cc2c[nH]c3ccccc23)NC(=O)[C@H](Cc2cccnc2)NC(=O)[C@H](Cc2ccc(O)cc2)NC(=O)[C@@H]2CCCN2C(=O)[C@H](CO)NC(=O)[C@H](Cc2ccccc2)NC(=O)CSC[C@@H](C(=O)NCC(=O)N[C@@H](CCCCNC(=O)CCOCCOCCOCCOCCOCCOCCOCCOCCOCCC(=O)NCCCC[C@H](NC(=O)CNC(=O)[C@@H]2CSCC(=O)N[C@@H](Cc3ccccc3)C(=O)N[C@@H](CO)C(=O)N3CCC[C@H]3C(=O)N[C@@H](Cc3ccc(O)cc3)C(=O)N[C@@H](Cc3cccnc3)C(=O)N[C@@H](Cc3c[nH]c4ccccc34)C(=O)N3CCC[C@H]3C(=O)N[C@@H]([C@@H](C)O)C(=O)N[C@@H](Cc3ccc(O)cc3)C(=O)N[C@@H](CO)C(=O)N[C@@H](CCC(=O)O)C(=O)N[C@@H](Cc3cccnc3)C(=O)N[C@@H](C(C)C)C(=O)N[C@@H](CCC(=O)O)C(=O)N2)C(N)=O)C(N)=O)NC(=O)[C@H](CCC(=O)O)NC1=O [compound 47] (I: {CH2CO}-FSPY[3Pal]WPTYSE[3Pal]VECGK-NH2 / II: {CH2CO}-FSPY[3Pal]WPTYSE[3Pal]VECGK-NH2; linker I:17-II:17 via CO(CH2CH2O)9CH2CH2CO; thioether I:N-I:15, II:N-II:15)
Emax (TrkB): 107%

B1: peptide complex, dimer structure No. 33 (peptide sequence No. 15 + linker structure No. 4) (peptide)
peptide: {CH2CO}-FSPY[3Pal]WPTYSE[3Pal]VECG
modifications: thioether N-15; also: homodimer via linker No. 4 (PEG8c-K-cPEG1c-K-PEG8c) at Gly16
PathHunter EC50 [1]: 0.354 nM | PathHunter Emax (BDNF maximum = 100%) [1]: 96%

Molecule: {CH2CO}-FLPY[3Pal]WPTYSL[3Pal]VWCG (thioether N-15; also: homodimer via linker No. 2 (PEG8c-K-PEG8c) at Gly16) [peptide complex, dimer structure No. 2 (peptide sequence No. 3 + linker structure No. 2)]
PathHunter Emax (BDNF maximum = 100%) [1]: 89%

Molecule: {CH2CO}-FSPY[3Pal]WPTYSE[3Pal]VECG (thioether N-15; also: homodimer via linker No. 2 (PEG8c-K-PEG8c) at Gly16) [peptide complex, dimer structure No. 15 (peptide sequence No. 15 + linker structure No. 2)]
PathHunter EC50 [1]: 0.29 nM | PathHunter Emax (BDNF maximum = 100%) [1]: 104%

Molecule: {CH2CO}-FLPY[3Pal]WPTYSL[3Pal]VWCG (thioether N-15; also: homodimer via linker No. 3 (PEG12c-K-PEG12c) at Gly16) [peptide complex, dimer structure No. 3 (peptide sequence No. 3 + linker structure No. 3)]
PathHunter Emax (BDNF maximum = 100%) [1]: 89%

Molecule: {CH2CO}-FSPY[3Pal]WPTYSE[3Pal]VECG (thioether N-15; also: homodimer via linker No. 14 (K-OCOPEG13OCO-K) at Gly16) [peptide complex, dimer structure No. 55 (peptide sequence No. 15 + linker structure No. 14)]
PathHunter EC50 [1]: 0.581 nM | PathHunter Emax (BDNF maximum = 100%) [1]: 104%

The next lines start with the values.

PathHunter EC50 [1]: 0.669 nM | PathHunter Emax (BDNF maximum = 100%) [1]: 99%
Molecule: {CH2CO}-FEPY[3Pal]WPTYSE[3Pal]VECG (thioether N-15; also: homodimer via linker No. 14 (K-OCOPEG13OCO-K) at Gly16) [peptide complex, dimer structure No. 57 (peptide sequence No. 17 + linker structure No. 14)]

PathHunter EC50 [1]: 0.556 nM | PathHunter Emax (BDNF maximum = 100%) [1]: 107%
Molecule: {CH2CO}-FSPY[3Pal]WPTYSE[3Pal]VECG (thioether N-15; also: homodimer via linker No. 6 (K-cPEG9c-K) at Gly16) [peptide complex, dimer structure No. 47 (peptide sequence No. 15 + linker structure No. 6)]

PathHunter EC50 [1]: 0.197 nM | PathHunter Emax (BDNF maximum = 100%) [1]: 86%
Molecule: {CH2CO}-FLPY[3Pal]WPTYSE[3Pal]VECG (thioether N-15; also: homodimer via linker No. 2 (PEG8c-K-PEG8c) at Gly16) [peptide complex, dimer structure No. 14 (peptide sequence No. 14 + linker structure No. 2)]

PathHunter EC50 [1]: 0.26 nM | PathHunter Emax (BDNF maximum = 100%) [1]: 93%
Molecule: {CH2CO}-FEPY[3Pal]WPTYSE[3Pal]VSCG (thioether N-15; also: homodimer via linker No. 2 (PEG8c-K-PEG8c) at Gly16) [peptide complex, dimer structure No. 18 (peptide sequence No. 18 + linker structure No. 2)]

PathHunter EC50 [1]: 0.599 nM | PathHunter Emax (BDNF maximum = 100%) [1]: 106%
B2: peptide complex, dimer structure No. 51 (peptide sequence No. 15 + linker structure No. 10) (peptide)
peptide: {CH2CO}-FSPY[3Pal]WPTYSE[3Pal]VECG
modifications: thioether N-15; also: homodimer via linker No. 10 (PEG2c-K-cPEG1c-K-PEG2c) at Gly16

PathHunter EC50 [1]: 0.644 nM | PathHunter Emax (BDNF maximum = 100%) [1]: 107%
Molecule: {CH2CO}-FSPY[3Pal]WPTYSE[3Pal]VECG (thioether N-15; also: homodimer via linker No. 8 (K-cPEG17c-K) at Gly16) [peptide complex, dimer structure No. 49 (peptide sequence No. 15 + linker structure No. 8)]
